The results in this text go back to patent US20040116336A1 (TAKADA PHARMACEUTICAL, published 2004).

To fix the notation:
T1: APJ (orphan G protein-coupled receptor protein)
T1 chain: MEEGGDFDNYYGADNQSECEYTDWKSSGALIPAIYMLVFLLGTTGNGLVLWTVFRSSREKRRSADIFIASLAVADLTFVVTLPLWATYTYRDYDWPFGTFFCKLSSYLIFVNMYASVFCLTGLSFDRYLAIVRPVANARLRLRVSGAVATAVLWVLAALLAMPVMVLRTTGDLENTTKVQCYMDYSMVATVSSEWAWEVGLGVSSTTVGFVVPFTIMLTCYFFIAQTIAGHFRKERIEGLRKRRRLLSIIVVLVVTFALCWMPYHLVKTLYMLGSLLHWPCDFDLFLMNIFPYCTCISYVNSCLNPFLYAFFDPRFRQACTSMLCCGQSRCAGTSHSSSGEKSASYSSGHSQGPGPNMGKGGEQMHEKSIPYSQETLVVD

B1: Arg-Pro-Arg-Leu-Ser-His-Lys-Gly-Pro-Met-Pro-Phe(Cl) (peptide)
peptide: RPRLSHKGPMP[Phe(4-Cl)]
notes: also called Compound in Ex. 8
B2: Arg-Pro-Arg-Leu-Phe-Ala-Arg-Gly-Pro-Met-Phe (peptide)
peptide: RPRLFARGPMF
notes: also called Compound in Ex. 47
B3: Arg-Arg-Ala-Arg-Pro-Arg-Leu-Ser-His-Lys-Gly-Pro-Met-Pro-Phe (peptide)
peptide: RRARPRLSHKGPMPF
notes: also called Compound in Ex. 25
B4: Arg-Pro-Arg-Leu-Phe-Ala-Arg-Gly-Pro-Met-Pro-Phe (peptide)
peptide: RPRLFARGPMPF
notes: also called Compound in Ex. 31
B5: Arg-Arg-Gln-Arg-Pro-Arg-Leu-Ser-Ala-Arg-Gly-Pro (peptide)
peptide: RRQRPRLSARGP
B6: Arg-Arg-Lys-Arg-Pro-Arg-Leu-Ser-His-Lys-Gly-Pro-Met-Pro-Phe (peptide)
peptide: RRKRPRLSHKGPMPF
notes: also called Compound in Ex. 23
B7: Arg-Pro-Arg-Leu-Ser-Ala-Arg-Gly-Pro-Met-Pro-Phe (peptide)
peptide: RPRLSARGPMPF
notes: also called Compound in Ex. 24
B8: Arg-Arg-Arg-Arg-Pro-Arg-Leu-Ser-His-Lys-Gly-Pro-Met-Pro-Phe (peptide)
peptide: RRRRPRLSHKGPMPF
B9: Arg-Arg-Gln-Arg-Pro-Arg-Leu-Ser-Ala-Arg-Gly-Pro-Met (peptide)
peptide: RRQRPRLSARGPM
notes: also called Compound in Ex. 18
B10: Arg-Arg-Phe-Arg-Pro-Arg-Leu-Ser-His-Lys-Gly-Pro-Met-Pro-Phe (peptide)
peptide: RRFRPRLSHKGPMPF
notes: also called Compound in Ex. 33
B11: Arg-Pro-Arg-Leu-Ser-Ala-Arg-Gly-Pro-Cha-Pro-Pyn (peptide)
peptide: RPRLSARGP[Cha]P[Pyn]
modifications: not fully specified; printed as Arg-Pro-Arg-Leu-Ser-Ala-Arg-Gly-Pro-Cha-Pro-Pyn
notes: also called Compound in Ex. 61
B12: Arg-Pro-Lys(Me)2-Leu-Ser-Ala-Arg-Gly-Pro-Met-Pro-Phe (peptide)
peptide: RP[Lys(Me2)]LSARGPMPF
notes: also called Compound in Ex. 63
B13: Arg-Arg-Gln-Arg-Pro-Arg-Leu-Ser-Ala-Arg-Gly-Gly-Cha (peptide)
peptide: RRQRPRLSARGG[Cha]
modifications: not fully specified; printed as Arg-Arg-Gln-Arg-Pro-Arg-Leu-Ser-Ala-Arg-Gly-Gly-Cha
notes: also called Compound in Ex. 62
B14: Arg-Pro-Arg-Leu-Ser-Ala-Lys(Me)2-Gly-Pro-Met-Pro-Phe (peptide)
peptide: RPRLSA[Lys(Me2)]GPMPF
notes: also called Compound in Ex. 64
B15: Arg-Pro-Arg-Leu-Ser-Ala-Arg-Gly-Pro-Cha-Pyn (peptide)
peptide: RPRLSARGP[Cha][Pyn]
modifications: not fully specified; printed as Arg-Pro-Arg-Leu-Ser-Ala-Arg-Gly-Pro-Cha-Pyn
notes: also called Compound in Ex. 60
B16: Arg-Pro-Arg-Leu-Ser-Ala-Arg-Gly-Pro-Met (peptide)
peptide: RPRLSARGPM
notes: also called Compound in Ex. 27
B17: Arg-Arg-Gln-Arg-Pro-Arg-Leu-Ser-Ala-Arg-Gly-Pro-Met-Pro-Phe (peptide)
peptide: RRQRPRLSARGPMPF
notes: also called Compound in Ex. 17

Starred links: 1 amine or outer side, 2 acyl side, 3 side chain; linkers in the order of their positions; H or OH if unused. Non-standard residues stand in square brackets, D forms with d. No end group written: not given here. Pyn = 1-pyrenylalanine, O=C([C@H](Cc1ccc2ccc3cccc4ccc1c2c34)N[*:1])[*:2]; Phe(4-Cl) = N[C@@H](Cc1ccc(Cl)cc1)C(=O)O; Lys(Me2) = CN(C)CCCC[C@H](N)C(=O)O; Cha = N[C@@H](CC1CCCCC1)C(=O)O

The target in the first experiment is T1, APJ (orphan G protein-coupled receptor …). The experiment is described as follows: cell-based or functional assay.
In the case of B1, the “EC50, inhibition of forskolin-stimulated cAMP production (CHO-A10 clone 6 cells)” value (“EC50, inhibition” below) turned out to be 0.34 nM.

The next experiment shares this target. The experiment is described as follows: cell-based or functional assay. This is another data set of the same source.
With B2, the “EC50, inhibition” value stood at 0.36 nM.
On to B3, for which the “EC50, inhibition” value was found to be 0.25 nM.
Turning to B4, the “EC50, inhibition” value was 0.14 nM.
Turning to B5, the “EC50, inhibition” value is 0.26 nM.
Consider B6, for which the “EC50, inhibition” value worked out at 0.31 nM.
Take B7: the “EC50, inhibition” value was 0.25 nM.
As for B8, the “EC50, inhibition” value was found to be 0.32 nM.
As for B9, the “EC50, inhibition” value came out at 0.18 nM.
For the molecule B10, the “EC50, inhibition” value was 1.1 nM.

For another experiment the target is unchanged. The experiment is described as follows: cell-based or functional assay. The source holds these as a separate data set.
As to B11, the “EC50, inhibition” value was determined as 2.2 nM.
The same measure, in the same setting: next, B12: 0.33 nM; B13: 0.23 nM; B14: 0.38 nM.
Take B15: the “EC50, inhibition” value came to 1.1 nM.

The next experiment shares this target. The experiment is described as follows: radioligand competition, compound of Ref. Ex. 2 as labelled ligand, CHO-A10 membrane fraction. For orientation: Displacement assays read how much labelled ligand stays bound in the presence of the test substance.
As for B1, the IC50 (usually the concentration that inhibits the measured activity by half) amounted to 0.039 nM.

Another experiment has the same target. The description is as above. This is another data set of the same source.
In turn, B16 registered a concentration for half-maximal inhibition (IC50) of 0.11 nM.
The molecule B17 yielded an IC50 of 0.036 nM.
As for B2, the concentration for half-maximal inhibition (IC50) stood at 1.8 nM.
Take B3: the IC50 turned out to be 0.067 nM.
With B4, the IC50 was 0.27 nM. Compared with the last molecule, the IC50 is about 4-fold higher.
Molecule B6 registered an IC50 of 0.09 nM.
B7 displayed an IC50 of 0.057 nM.
B9 gave an IC50 of 0.023 nM. This IC50 is about 2.5-fold lower than that of the molecule before.
B10 gave a half-maximal inhibitory concentration (IC50) of 0.37 nM.

The target is the same in another experiment. Described as above. The source holds these as a separate data set.
Regarding B11, the IC50 turned out to be 0.56 nM.
Consider B12, for which the half-maximal inhibitory concentration (IC50) is 0.074 nM.
Turning to B13, the 50% inhibitory concentration (IC50) is 0.14 nM. Compared with the last molecule, the IC50 is about 1.9-fold higher.
On to B15, for which the half-maximal inhibitory concentration (IC50) was determined as 0.8 nM. This IC50 lies about 5.7-fold higher than the previous one.

The target is the same in another experiment. The experiment is described as follows: radioligand competition, 125I-labelled compound of Ref. Ex. 1 (100 pM), CHO-A10 membrane fraction. The method, then:
This product was mixed with an equal volume of an assay buffer (50 mM Tris-HCl/pH 7.5, 5 mM EDTA, 0.5 mM PMSF, 20 μg/ml leupeptin, 0.1 μg/ml pepstatin A, 4 μg/ml E-64 (Peptide Research Laboratory, Co.), 0.1% bovine serum albumin) and stored at −30° C. before use.
CHO-A10 cells were cultured, recovered with PBS containing 5 mM EDTA from a culture vessel, and suspended in the above-mentioned assay buffer not containing bovine serum albumin. The cells were homogenized 3 times at 12,000 rpm for 15 seconds by a Polytron homogenizer (manufactured by Kinematica Inc.) and then centrifuged (1000×g, 4° C., 10 minutes), and the supernatant was recovered. The precipitates were subjected again to the same procedure as above, and the respective supernatants were combined and centrifuged at 100,000×g, 4° C. for 1 hour, to recover precipitates (membrane fraction). The membrane fraction was suspended again in a small amount of the buffer, homogenized with a Teflon homogenizer and stored at −80° C. before use.
Binding assay was carried out under the following conditions. […] containing 0.25 μg of the membrane fraction, the ¹²⁵I-labeled compound at a final concentration of 100 pM, a test sample and an assay buffer were put onto each well of a 96-well polypropylene plate, and incubated at room temperature for 1.5 hours. Measurement of non-specific binding was carried out using a well containing 1 μM unlabeled compound in place of the test sample. After the incubation was finished, a cell harvester (Packard) adapted to 96 wells and a filter unit (GF/C, Packard) were used for separation thereby capturing the membrane fraction on the filter. After the filter was sufficiently dried, Microcinti 0 (Packard) was added thereto, and using Top Count (Packard), the amount of the labeled material captured together with the membrane fraction on the filter was measured.
The molecule B1 returned a half-inhibitory concentration (IC50) of 13 nM. In other words, the double-digit nanomolar range.
Molecule B3 showed an IC50 of 34 nM. Compared with the last molecule, the IC50 is about 2.6-fold higher.
Same read-out and setting: next, B6: 9.2 nM; B7: 27 nM.
Same read-out and setting: next, B9: 2.5 nM.

For a further experiment the target is unchanged. The description is as above. The source holds these as a separate data set.
Regarding B11, the IC50 came to 2.2 nM. This counts as single-digit nanomolar.
B12: the IC50 was found to be 0.33 nM.
As for B13, the IC50 is 0.23 nM.
Molecule B14 showed a 50% inhibitory concentration (IC50) of 0.38 nM. Against the preceding molecule, the IC50 is about 1.7-fold higher.
B15 registered an IC50 of 1.1 nM.
